Changes are numbered by the printed parent chain. Names and notes keep the numbering of the source.
B1: wild-type recombinant mouse glutaminase C (GAC), residues 73-603, unlabeled (enzyme)
chain: SSSPSEILQELGKGGTPPQQQQQQQQQPGASPPAAPGPKDSPGETDAFGNSEGKEMVAAGDNKIKQGLLPSLEDLLFYTIAEGQEKIPVHKFITALKSTGLRTSDPRLKECMDMLRLTLQTTSDGVMLDKDLFKKCVQSNIVLLTQAFRRKFVIPDFMSFTSHIDELYESAKKQSGGKVADYIPQLAKFSPDLWGVSVCTVDGQRHSIGDTKVPFCLQSCVKPLKYAIAVNDLGTEYVHRYVGKEPSGLRFNKLFLNEDDKPHNPMVNAGAIVVTSLIKQGVNNAEKFDYVMQFLNKMAGNEYVGFSNATFQSERESGDRNFAIGYYLKEKKCFPEGTDMVGILDFYFQLCSIEVTCESASVMAATLANGGFCPITGERVLSPEAVRNTLSLMHSCGMYDFSGQFAFHVGLPAKSGVAGGILLVVPNVMGMMCWSPPLDKMGNSVKGIHFCHDLVSLCNFHNYDNLRHFAKKLDPRREGGDQRHSFGPLDYESLQQELALKDTVWKKVSPESSDDTSTTVVYRMESLGERS
notes: one subunit is described; also called WT GAC; unlabeled GAC; not shown: N-terminal His tag and thrombin cleavage site from pET28a
B2: QSY9-labeled recombinant mouse GAC (FRET acceptor) (enzyme)
chain: B1 chain
modifications: labeled with QSY9 succinimidyl ester (sites not given)
notes: also called QSY9-GAC; QSY9-labeled GAC; not shown: N-terminal His tag and thrombin cleavage site from pET28a
B3: mouse GAC F327W mutant (residues 73-603) (enzyme)
chain: B1 chain with F255W
notes: not shown: N-terminal His tag and thrombin cleavage site from pET28a
B4: mouse GAC F327W,D391K double mutant (residues 73-603) (enzyme)
chain: B1 chain with F255W, D319K
notes: Found as a dimer by SEC-MALS; also called GAC double mutant; dimeric GACF327W,D391K double mutant; not shown: N-terminal His tag and thrombin cleavage site from pET28a
B5: Alexa Fluor 488-labeled recombinant mouse GAC (FRET donor) (enzyme)
chain: B1 chain
modifications: labeled with Alexa Fluor 488 succinimidyl ester (sites not given)
notes: as for B3

Assays:
[1] = target: B5; assay: FRET exchange (competition): excess unlabeled GAC added to preformed 488-labeled GAC / QSY9-GAC complexes; displaced competitor is QSY9-GAC; with or without 100 mM phosphate or sulfate [panel A]
[2] = target: B2; assay: FRET, exchange with excess unlabeled GAC
[3] = target: the molecule itself; assay: SEC-MALS of 5 mg/ml protein, self-association (dimer/tetramer), without and after preincubation with BPTES; MW on a log axis [panel C]
From the text: (§1) LS=light scattering; MW=molecular weight. […] Points represent the mean and error bars the standard deviation of three independent experiments.

[4] = target: B5; assay: FRET time trace: 25 nM 488-labeled GAC (donor) + 75 nM QSY9-GAC (acceptor); 100 mM phosphate, sulfate or water added at 10 min [panel A]
[5] = target: the molecule itself; assay: SEC-MALS of 5 mg/ml protein, self-association (dimer/tetramer), without and after preincubation with BPTES; MW on a log axis [panel D]
From the text: as §1

[6] = target: the molecule itself; assay: SEC-MALS of 5 mg/ml protein, self-association, without and after preincubation with BPTES; MW on a log axis [panel B]
From the text: LS=light scattering; MW=molecular weight.

[7] = target: B2; assay: FRET, self-association of labeled GAC in solution

Question: Does B1 bind [1]?
Answer: binds

Question: Does B1 bind [2]?
Answer: binds

Question: What about the “Specific activity of WT GAC without phosphate (mol Glu/min mol GAC), against [GAC]” value of the same binder?
Answer: specific activity (triangles, left axis) rises with [GAC] from about 90 at about 85 nM through about 400 at about 430 nM to about 500 at about 1000-1500 nM, flattening; no lower plateau inside the range (linear axis)

Question: Does B1 bind [3]?
Answer: binds

Question: Does B2 bind [4]?
Answer: binds

Question: Does B3 bind [5]?
Answer: binds

Question: Does B4 bind [6]?
Answer: binds

Question: Does B5 bind [7]?
Answer: binds

— patent publication US20180100178A1 (CORNELL UNIVERSITY, published 2018)
